Source: patent US8409859B2, “Differentiation of non-embryonic stem cells to cells having a pancreatic phenotype” (Regents of the University of Minnesota, priority 2005, dated 2013)

B1: FGF10: FGF produced by mesenchymal cells, used at about 100 ng/mL (protein, UniProt O15520 38-208, looked up)
Fibroblast growth factor 10: QALGQDMVSPEATNSSSSSFSSPSSAGRHVRSYNHLQGDVRWRKLFSFTKYFLKIEKNGKVSGTKKENCPYSILEITSVEIGVVAVKAINSNYYLAMNKKGKLYGSKEFNNDCKLKERIEENGYNTYASFNWQHNGRQMYVALNGKGAPRRGQKTRRKNTSAHFLPMVVHS
B2: GDF11: member of the BMP/TGFbeta superfamily (protein, UniProt O95390 299-407, looked up)
Growth/differentiation factor …: NLGLDCDEHSSESRCCRYPLTVDFEAFGWDWIIAPKRYKANYCSGQCEYMFMQKYPHTHLVQQANPRGSAGPCCTPTKMSPINMLYFNDKQQIIYGKIPGMVVDRCGCS

Test system: rat MAPCs
Assay: Cytokine mediated differentiation of rat MAPCs, Q-RT-PCR and cell survival
Format: cell-based
Protocol: For Q-RT-PCR reactions described herein, the primer sequences are presented in Tables 3-5 and the following protocols were used: RNA was extracted from the cells with the aid of the RNeasy Mini Kit (Qiagen; Valencia Calif.), followed by a DNase Treatment with DNA-Free™ (Ambion, Austin, Tex.). The RNA was reverse transcribed with TaqMan (Applied Biosystems, Foster City, Calif.; Step 1 (Incubation): 25° C., 10 min; Step 2 (RT): 48° C., 30 min; Step 3 (RT Inactivation): 95° C., 10 min).
Following reverse transcription, Quantitative Real Time PCR (Q-RT-PCR) was performed as follows: Step 1: 50° C., 2 min (Incubation); Step 2: 95° C., 10 min (Taq activation); Step 3: 95° C., 15 sec (Denaturation) followed by 60° C., 1 min (Extension) and repeat for 40 cycles; Step 4: 95° C., 15 sec (Dissociation); Step 5: 60° C., 20 sec (Melting curve); Step 6: 95° C., 15 sec.
In an initial series of studies, the effect of cell density (about 10^4-10^5 cells/cm^2), ECM component (fibronectin, collagen, matrigel) and different concentrations (10-100 ng/mL) of bFGF (10-100 ng/mL), FGF2 (10-100 ng/mL), Activin A (e.g., about 10 ng/mL to about 100 ng/mL), BMP4 (e.g., about 10 ng/mL to about 50 ng/mL), retinoic acid (about 10^−6M), EGF (e.g., about 10 to about 100 ng/mL), FGF10 (e.g., about 50 to about 150 ng/mL, including about 100 ng/mL), HGF (e.g., about 10 to about 100 ng/mL), GDF11 (e.g., about 50 to abut 150 ng/mL), cyclopamine (e.g., about 10 μM), anti-SHH antibody (Ab; e.g., about 10 μg/mL), nicotinamide (e.g., 5 μM to about 50 μM, including about 10 μM), exendin 4 (about 5 nM to about 50 nM, including about 10 nM), betacellulin (e.g., about 50 to abut 150 ng/mL) alone or in combinations of 2 or 3 and in different temporal sequences, on the induction of transcription factors, insulin, glucagon and somatostatin expression levels after 6, 12 and 18 days using Q-RT-PCR was determined.
Subsequent addition of factors believed to play a role in further proliferation and differentiation from pancreas-committed cells to mature endocrine pancreas, including EGF (e.g., about 50 ng/mL), HGF (e.g., about 50 ng/mL) and FGF10 (e.g., about 100 ng/mL), either alone or in combination was tested. […] Further optimization was obtained by adjusting the duration of the different steps along the differentiation course, as well addition of β-cellulin (50 ng/mL).

Row | Molecule | cell survival (activin-A, BMP4 and cyclopamine or anti-SHH Ab withdrawn after d6, cells then maintained with the factor) | Ins1 and Ins2 mRNA levels (GDF11 added)
1 | B1 | not | 
2 | B2 |  | a further increase
